Laboratory results published in patent US12522842B2, “Glutamine synthetase mutant having glufosinate resistance and application thereof and cultivation method therefor” (GEVOTO LLC, priority 2019, dated 2026).

Test system: glutamine synthetase-deficient Escherichia coli
Test: Growth of glutamine synthetase-deficient E. coli transformed with GS mutants in M9 medium containing glufosinate
Type: cell-based
Details: for growth of transformed GS-deficient E. coli (normal GS enzymatic activity): medium containing 0 mM glufosinate
From the text: According to the sequences of the nucleic acid molecules provided in Example 4, the nucleic acid sequences encoding rice GS mutants OsA, OsC, OsD, OsE, OsF, OsG, OsH, OsI, OsK, OsP, OST, OsV, and OsY were synthesized using chemical synthesis method. Restriction digestion sites (Pac1 and Sbf1) were introduced at both ends thereof, and after restriction digestion, they were linked under the action of ligase to an expression vector (such as pADV7 vector, whose structure is shown in FIG. 4) that was subjected to the same restriction digestion treatment. Then, glutamine synthetase-deficient Escherichia coli was transformed with the resultant. After verification, positive clones were picked up and inoculated in M9 medium containing different concentrations of glufosinate to grow, and the growth status of defective Escherichia coli was observed.
With wild-type rice GS (its amino acid sequence shown in SEQ ID NO. 1 and its encoding gene shown in SEQ ID NO. 4) as a negative control, the glufosinate resistance for the GS mutant OsA (S59A, wherein the amino acid S at site 59 of the rice GS is mutated into A), OsC (S59C), OsD (S59D), OsE (S59E), OsF (S59F), OsG (S59G), OsH (S59H), OsI (S591), OsK (S59K), OsP (S59P), OsT (S59T), OsV (S59V), OsY (S59Y) was detected.
With reference to the detection method of Experimental Example 1, glufosinate resistance of the rice GS mutant OsGR (S59G and H296R, the amino acid S at site 59 of rice GS is mutated into G and the amino acid H at site 296 is mutated into R), the wheat GS mutant TaGR (S59G and H296R, the amino acid S at site 59 of wheat GS is mutated into G and the amino acid H at site 296 is mutated into R), the soybean GS mutant GmGR (S59G and H296R, the amino acid S at site 59 of soybean GS is mutated into G and the amino acid H at site 296 is mutated into R) provided in Example 2 was verified.
With reference to Experimental example 1, the glufosinate resistance of rice GS mutants OA, OD, OE, OG, OI, OK, OM, OP, OQ, OR, OS, OT, and OV provided in Example 3 was detected according to the following method.
With wild-type rice GS as a negative control, the glufosinate resistance of GS mutants OA (H296A, amino acid H at site 296 of rice GS is mutated into A), OD (H296D), OE (H296E), OG (H296G), OI (H2961), OK (H296K), OM (H296M), OP (H296P), OQ (H296Q), OR (H296R), OS (H296S), OT (H296T), OV (H296V) was detected.

[1] = medium containing 10 mM glufosinate
[2] = medium with 50 mM/100 mM glufosinate

B1: OsK (protein)
chain: MASLTDLVNLNLSDTTEKIIAEYIWIGGSGMDLRSKARTLSGPVTDPSKLPKWNYDGSKTGQAPGEDSEVILYPQAIFKDPFRKGNNILVMCDCYTPAGEPIPTNKRHNAAKIFSSPEVASEEPWYGIEQEYTLLQKDINWPLGWPVGGFPGPQGPYYCGIGADKSFGRDIVDSHYKACLYAGINISGINGEVMPGQWEFQVGPSVGISAGDQVWVARYILERITEIAGVVVSFDPKPIPGDWNGAGAHTNYSTKSMRNDGGYEIIKSAIEKLKLRHKEHISAYGEGNERRLTGRHETADINTFSWGVANRGASVRVGRETEQNGKGYFEDRRPASNMDPYIVTSMIAETTIIWKP
modifications: OsK
In the case of B1, the “growth of transformed GS-deficient E. coli (normal GS enzymatic activity)” value (from here on “growth … (normal GS enzymatic activity)”) is reported as “could normally grow”, the “growth of transformed E. coli (glufosinate resistance)” value (“growth of transformed E. coli” for short) [1] is reported as “significantly superior to that of the negative control” and the “growth of transformed E. coli” value [2] is reported as “significantly grew”.

B2: OsP (protein)
chain: MASLTDLVNLNLSDTTEKIIAEYIWIGGSGMDLRSKARTLSGPVTDPSKLPKWNYDGSPTGQAPGEDSEVILYPQAIFKDPFRKGNNILVMCDCYTPAGEPIPTNKRHNAAKIFSSPEVASEEPWYGIEQEYTLLQKDINWPLGWPVGGFPGPQGPYYCGIGADKSFGRDIVDSHYKACLYAGINISGINGEVMPGQWEFQVGPSVGISAGDQVWVARYILERITEIAGVVVSFDPKPIPGDWNGAGAHTNYSTKSMRNDGGYEIIKSAIEKLKLRHKEHISAYGEGNERRLTGRHETADINTFSWGVANRGASVRVGRETEQNGKGYFEDRRPASNMDPYIVTSMIAETTIIWKP
modifications: OsP
B2 was tested, and the “growth … (normal GS enzymatic activity)” value was “could normally grow”, the “growth of transformed E. coli” value [1] was “significantly superior to that of the negative control” and the “growth of transformed E. coli” value [2] was “significantly grew”.

B3: OsV (protein)
chain: MASLTDLVNLNLSDTTEKIIAEYIWIGGSGMDLRSKARTLSGPVTDPSKLPKWNYDGSVTGQAPGEDSEVILYPQAIFKDPFRKGNNILVMCDCYTPAGEPIPTNKRHNAAKIFSSPEVASEEPWYGIEQEYTLLQKDINWPLGWPVGGFPGPQGPYYCGIGADKSFGRDIVDSHYKACLYAGINISGINGEVMPGQWEFQVGPSVGISAGDQVWVARYILERITEIAGVVVSFDPKPIPGDWNGAGAHTNYSTKSMRNDGGYEIIKSAIEKLKLRHKEHISAYGEGNERRLTGRHETADINTFSWGVANRGASVRVGRETEQNGKGYFEDRRPASNMDPYIVTSMIAETTIIWKP
modifications: OsV
For B3, the “growth … (normal GS enzymatic activity)” value was “could normally grow” and the “growth of transformed E. coli” value [1] was “significantly superior to that of the negative control”.

B4: OsF (protein)
chain: MASLTDLVNLNLSDTTEKIIAEYIWIGGSGMDLRSKARTLSGPVTDPSKLPKWNYDGSFTGQAPGEDSEVILYPQAIFKDPFRKGNNILVMCDCYTPAGEPIPTNKRHNAAKIFSSPEVASEEPWYGIEQEYTLLQKDINWPLGWPVGGFPGPQGPYYCGIGADKSFGRDIVDSHYKACLYAGINISGINGEVMPGQWEFQVGPSVGISAGDQVWVARYILERITEIAGVVVSFDPKPIPGDWNGAGAHTNYSTKSMRNDGGYEIIKSAIEKLKLRHKEHISAYGEGNERRLTGRHETADINTFSWGVANRGASVRVGRETEQNGKGYFEDRRPASNMDPYIVTSMIAETTIIWKP
modifications: OsF
In the case of B4, the “growth … (normal GS enzymatic activity)” value is reported as “could normally grow”, the “growth of transformed E. coli” value [1] is reported as “significantly superior to that of the negative control” and the “growth of transformed E. coli” value [2] is reported as “significantly grew”.

B5: OsC (protein)
chain: MASLTDLVNLNLSDTTEKIIAEYIWIGGSGMDLRSKARTLSGPVTDPSKLPKWNYDGSCTGQAPGEDSEVILYPQAIFKDPFRKGNNILVMCDCYTPAGEPIPTNKRHNAAKIFSSPEVASEEPWYGIEQEYTLLQKDINWPLGWPVGGFPGPQGPYYCGIGADKSFGRDIVDSHYKACLYAGINISGINGEVMPGQWEFQVGPSVGISAGDQVWVARYILERITEIAGVVVSFDPKPIPGDWNGAGAHTNYSTKSMRNDGGYEIIKSAIEKLKLRHKEHISAYGEGNERRLTGRHETADINTFSWGVANRGASVRVGRETEQNGKGYFEDRRPASNMDPYIVTSMIAETTIIWKP
modifications: OsC
In the case of B5, the “growth … (normal GS enzymatic activity)” value is reported as “could normally grow”, the “growth of transformed E. coli” value [1] is reported as “significantly superior to that of the negative control” and the “growth of transformed E. coli” value [2] is reported as “significantly grew”.

B6: OsD (protein)
chain: MASLTDLVNLNLSDTTEKIIAEYIWIGGSGMDLRSKARTLSGPVTDPSKLPKWNYDGSDTGQAPGEDSEVILYPQAIFKDPFRKGNNILVMCDCYTPAGEPIPTNKRHNAAKIFSSPEVASEEPWYGIEQEYTLLQKDINWPLGWPVGGFPGPQGPYYCGIGADKSFGRDIVDSHYKACLYAGINISGINGEVMPGQWEFQVGPSVGISAGDQVWVARYILERITEIAGVVVSFDPKPIPGDWNGAGAHTNYSTKSMRNDGGYEIIKSAIEKLKLRHKEHISAYGEGNERRLTGRHETADINTFSWGVANRGASVRVGRETEQNGKGYFEDRRPASNMDPYIVTSMIAETTIIWKP
modifications: OsD
In the case of B6, the “growth … (normal GS enzymatic activity)” value is reported as “could normally grow”, the “growth of transformed E. coli” value [1] is reported as “significantly superior to that of the negative control” and the “growth of transformed E. coli” value [2] is reported as “significantly grew”.

B7: OsA (protein)
chain: MASLTDLVNLNLSDTTEKIIAEYIWIGGSGMDLRSKARTLSGPVTDPSKLPKWNYDGSATGQAPGEDSEVILYPQAIFKDPFRKGNNILVMCDCYTPAGEPIPTNKRHNAAKIFSSPEVASEEPWYGIEQEYTLLQKDINWPLGWPVGGFPGPQGPYYCGIGADKSFGRDIVDSHYKACLYAGINISGINGEVMPGQWEFQVGPSVGISAGDQVWVARYILERITEIAGVVVSFDPKPIPGDWNGAGAHTNYSTKSMRNDGGYEIIKSAIEKLKLRHKEHISAYGEGNERRLTGRHETADINTFSWGVANRGASVRVGRETEQNGKGYFEDRRPASNMDPYIVTSMIAETTIIWKP
modifications: OsA
With B7 the “growth … (normal GS enzymatic activity)” value was “could normally grow” and the “growth of transformed E. coli” value [1] was “significantly superior to that of the negative control”.

B8: OsE (protein)
chain: MASLTDLVNLNLSDTTEKIIAEYIWIGGSGMDLRSKARTLSGPVTDPSKLPKWNYDGSETGQAPGEDSEVILYPQAIFKDPFRKGNNILVMCDCYTPAGEPIPTNKRHNAAKIFSSPEVASEEPWYGIEQEYTLLQKDINWPLGWPVGGFPGPQGPYYCGIGADKSFGRDIVDSHYKACLYAGINISGINGEVMPGQWEFQVGPSVGISAGDQVWVARYILERITEIAGVVVSFDPKPIPGDWNGAGAHTNYSTKSMRNDGGYEIIKSAIEKLKLRHKEHISAYGEGNERRLTGRHETADINTFSWGVANRGASVRVGRETEQNGKGYFEDRRPASNMDPYIVTSMIAETTIIWKP
modifications: OsE
In the case of B8, the “growth … (normal GS enzymatic activity)” value is reported as “could normally grow” and the “growth of transformed E. coli” value [1] is reported as “significantly superior to that of the negative control”.
